# Test results as given in patent US7422861B2, “Oligonucleotide transfection screening method” (priority 2000, dated 2008).
# System: SKOV3 (ovarian carcinoma) cells
# Experiment: Apoptosis assay, annexin V and PI staining followed by FACS analysis (FIG. 1B)
# Type: cell-based
# Conditions: SKOV3 cells from the same transfections
# Method: As a measure of cellular toxicity of the transfection agents, cells from the same transfections were stained with annexin V and PI, followed by FACS analysis (FIG. 1B). The fraction of cells positive for Annexin V, or for Annexin V and PI, are those in early or late stage apoptosis, respectively.
# Apoptosis Assay. Following transfection with antisense oligonucleotides and various transfection agents, cells were gently removed from plates using 0.05% trypsin and 2 mM EDTA, washed in a buffer containing 10 mM Hepes pH7.2, 140 mM NaCl, 5 mM CaCl2, and stained with Propidium iodide at a final concentration of 1 μg/ml and Annexin-V-FLUOS (Roche Molecular Biochemicals). Cells were then analyzed for staining with each marker using a Becton Dickinson FACScan.
row,SMILES,Staining with annexin V or PI (apoptosis)
1,COc1ccc(CCN(CC(N)=O)C(=O)CN(CCc2ccc(OC)cc2)C(=O)CN(CCN)C(=O)CN(CCc2ccc(OC)cc2)C(=O)CN(CCc2ccc(OC)cc2)C(=O)CN(CCN)C(=O)CN(CCc2ccc(OC)cc2)C(=O)CN(CCc2ccc(OC)cc2)C(=O)CN(CCN)C(=O)CCNC(=O)O[C@H]2CC[C@@]3(C)C(=CC[C@H]4[C@@H]5CC[C@H]([C@H](C)CCCC(C)C)[C@@]5(C)CC[C@@H]43)C2)cc1 [Cholesteroid 1],negligible staining
2,CCCCCCCCCCCCCC(=O)OCC(COP(=O)(O)OCCNCC(=O)N(CCN)CC(=O)N(CCc1ccc(OC)cc1)CC(=O)N(CCc1ccc(OC)cc1)CC(=O)N(CCN)CC(=O)N(CCc1ccc(OC)cc1)CC(=O)N(CCc1ccc(OC)cc1)CC(=O)N(CCN)CC(=O)N(CCc1ccc(OC)cc1)CC(=O)N(CCc1ccc(OC)cc1)CC(N)=O)OC(=O)CCCCCCCCCCCCC (centres unmarked) [Lipitoid 1],negligible staining
